Test results taken from PMC3094755, “The DNA-Binding Domain of Human PARP-1 Interacts with DNA Single-Strand Breaks as a Monomer through Its Second Zinc Finger”.

Legend:
Conditions in all cases: protein: recombinant; label: fluorescein-dT at T8; single-chain dumbbell, 18 bp with central nick, two tetraloops
[1] = target: T1, DNA ligase III alpha zinc finger (DL3) (UniProt P49916-3 1-117); assay: fluorescence anisotropy; 20 mM pyrophosphate pH 7.0; more similar to F2 than F1; FA: 50 mM Tris-HCl pH 7, 150 uM ZnSO4, 4 mM DTT, 0-200 mM NaCl, 25 C, 10 nM DNA (mutants 25 nM DNA, 25 mM NaCl); EMSA: 50 mM Tris-HCl pH 7.4, 150 uM ZnSO4, 4 mM DTT, 10% glycerol, RT incubation, gel at 4 C; NMR complexes: 50 mM Tris pH 7.0, 150 uM ZnSO4, 4 mM DTT, 37 C
T1 sequence: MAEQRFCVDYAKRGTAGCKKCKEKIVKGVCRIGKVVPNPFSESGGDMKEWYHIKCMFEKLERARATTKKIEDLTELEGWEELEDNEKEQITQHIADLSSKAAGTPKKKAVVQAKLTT

PARP-1 F2 [2] = target: T2, PARP-1 F2 (Homo sapiens, UniProt P09874 103-214); assay: fluorescence anisotropy; 50; 50 mM Tris-HCl pH 7.0, 150 uM ZnSO4, 4 mM DTT, 25 C; NaCl 0-200 mM (T2, as in cof; 10 nM DNA) or 25 mM (T3 mutants; 25 nM DNA)
[3] = target: T3, PARP-1 F1+F2 (24-kDa DBD) (Homo sapiens, UniProt P09874 1-214); assay: as above
PARP-1 F2 [4] = target: T2, PARP-1 F2; assay: fluorescence anisotropy; 75; 50 mM Tris-HCl pH 7.0, 150 uM ZnSO4, 4 mM DTT, 25 C; NaCl 0-200 mM (T2, as in cof; 10 nM DNA) or 25 mM (T3 mutants; 25 nM DNA)
[5] = target: T3, PARP-1 F1+F2 (24-kDa DBD); assay: as above
[6] = target: T3, PARP-1 F1+F2 (24-kDa DBD); assay: fluorescence anisotropy; 150; 50 mM Tris-HCl pH 7.0, 150 uM ZnSO4, 4 mM DTT, 25 C; NaCl 0-200 mM (T2, as in cof; 10 nM DNA) or 25 mM (T3 mutants; 25 nM DNA)
PARP-1 F2 K141I/K142I = PARP-1 F2 K141I/K142I (Homo sapiens, UniProt P09874 103-214, K141I;K142I); assay: fluorescence anisotropy; 25 mM NaCl; apparent, one-site model; FA: 50 mM Tris-HCl pH 7, 150 uM ZnSO4, 4 mM DTT, 0-200 mM NaCl, 25 C, 10 nM DNA (mutants 25 nM DNA, 25 mM NaCl); EMSA: 50 mM Tris-HCl pH 7.4, 150 uM ZnSO4, 4 mM DTT, 10% glycerol, RT incubation, gel at 4 C; NMR complexes: 50 mM Tris pH 7.0, 150 uM ZnSO4, 4 mM DTT, 37 C
[7] = target: T3, PARP-1 F1+F2 (24-kDa DBD); assay: fluorescence anisotropy; 25; 50 mM Tris-HCl pH 7.0, 150 uM ZnSO4, 4 mM DTT, 25 C; NaCl 0-200 mM (T2, as in cof; 10 nM DNA) or 25 mM (T3 mutants; 25 nM DNA)
PARP-1 F2 [8] = target: T2, PARP-1 F2; assay: fluorescence anisotropy; 100; 50 mM Tris-HCl pH 7.0, 150 uM ZnSO4, 4 mM DTT, 25 C; NaCl 0-200 mM (T2, as in cof; 10 nM DNA) or 25 mM (T3 mutants; 25 nM DNA)
[9] = target: T3, PARP-1 F1+F2 (24-kDa DBD); assay: as above
[10] = target: T3, PARP-1 F1+F2 (24-kDa DBD); assay: fluorescence anisotropy; 0 mM NaCl; tight site (KD1); FA: 50 mM Tris-HCl pH 7, 150 uM ZnSO4, 4 mM DTT, 0-200 mM NaCl, 25 C, 10 nM DNA (mutants 25 nM DNA, 25 mM NaCl); EMSA: 50 mM Tris-HCl pH 7.4, 150 uM ZnSO4, 4 mM DTT, 10% glycerol, RT incubation, gel at 4 C; NMR complexes: 50 mM Tris pH 7.0, 150 uM ZnSO4, 4 mM DTT, 37 C

T2 sequence (P09874 103-214): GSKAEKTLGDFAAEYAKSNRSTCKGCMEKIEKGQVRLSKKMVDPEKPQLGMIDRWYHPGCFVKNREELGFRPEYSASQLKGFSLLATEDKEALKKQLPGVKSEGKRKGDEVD
T3 sequence (P09874 1-214): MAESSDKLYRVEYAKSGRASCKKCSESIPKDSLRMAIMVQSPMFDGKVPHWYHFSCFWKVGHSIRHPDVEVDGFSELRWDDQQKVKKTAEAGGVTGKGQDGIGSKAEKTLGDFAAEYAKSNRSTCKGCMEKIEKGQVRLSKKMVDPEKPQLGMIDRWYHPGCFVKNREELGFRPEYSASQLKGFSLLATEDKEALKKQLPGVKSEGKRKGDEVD
Sequence of PARP-1 F2 K141I/K142I (P09874 103-214 K141I/K142I): as the sequence (P09874 103-214) above, with K39I, K40I counted along it

CGGTCGATCGTAAGATCGACCGGCGCTGGAGCTTGCTCCAGCGC (structured_DNA, 5'-phosphate) [44-nt nicked dumbbell, 5'-phosphate, fluorescein-dT]
binding result [1]: binds
Kd (PARP-1 F2 [2]): 130 nM
Kd [3]: 8.02 nM
Kd (PARP-1 F2 [4]): 218 nM
Kd [5]: 37 nM
Kd [6]: 24.6 nM
Kd (PARP-1 F2 K141I/K142I): 3930 nM
Kd [7]: 20.4 nM
Kd (PARP-1 F2 [8]): 146 nM
Kd [9]: 9.37 nM
Kd [10]: 5.7 nM
